T1: recombinant monkey TfR (r monkey TfR: Sino Biological Inc.) (cynomolgus monkey (Macaca fascicularis), UniProt Q5RDH6 89-760 (Pongo abelii entry))
T1 construct: Bought product; also called r monkey TfR-ECD (Histag); cynomolgus monkey TfR; not shown: histidine tag attached to the N-terminus
T1 chain: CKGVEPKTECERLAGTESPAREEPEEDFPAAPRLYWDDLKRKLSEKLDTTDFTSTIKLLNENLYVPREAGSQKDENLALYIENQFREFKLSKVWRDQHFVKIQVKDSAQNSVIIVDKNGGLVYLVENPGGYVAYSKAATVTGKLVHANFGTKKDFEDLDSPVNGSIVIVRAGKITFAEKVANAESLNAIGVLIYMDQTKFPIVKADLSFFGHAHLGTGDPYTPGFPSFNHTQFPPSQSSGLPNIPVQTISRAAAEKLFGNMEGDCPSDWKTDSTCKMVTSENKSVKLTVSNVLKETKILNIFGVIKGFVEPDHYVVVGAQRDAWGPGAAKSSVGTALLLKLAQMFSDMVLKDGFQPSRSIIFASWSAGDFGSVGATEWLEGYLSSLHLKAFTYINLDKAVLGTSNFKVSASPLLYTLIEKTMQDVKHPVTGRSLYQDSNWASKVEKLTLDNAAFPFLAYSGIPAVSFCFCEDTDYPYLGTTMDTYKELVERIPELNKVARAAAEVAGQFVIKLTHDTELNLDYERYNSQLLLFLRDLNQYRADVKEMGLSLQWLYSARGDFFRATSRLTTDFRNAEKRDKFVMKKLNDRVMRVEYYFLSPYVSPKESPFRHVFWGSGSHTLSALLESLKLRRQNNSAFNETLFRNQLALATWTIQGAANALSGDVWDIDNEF

B1: anti-hTfR antibody No. 1 (antibody, V domains shown)
VH: EVQLQESGGGLVQPGGSLKLSCAASGLTFSNYGMSWIRQTPDKRLELVANINTNGGSTYYPDSVKGRFTISRDNAKNTLYLQMNSLKSEDTAIYYCTNNRYDEDYWGQGTSVTVSS
VL: DIVLTQSSKFMSTSVGDRVSITCKASQDVNSAVAWFQQKPGQSPKLLIYWTSTRHTGVPDRFTGSGSGTVYTLTISSVQAEDLALYYCQQHYSTPRTFGGGTKLEIKR
notes: Mouse hybridoma antibody purified on Protein G; also called mouse anti-hTfR antibody No. 1; product of Clone 1 line
B2: anti-hTfR antibody No. 4 (antibody, V domains shown)
VH: EVQLQESGAELVRPGTSVRVFCKASGYAFTNYLIEWVKQRPGQGLEWIGLINPGSGGIIYNEKFTDRATLTADKSSSTAYMQLSSLTSDDSAVYFCARSNYYGTTYWHFDVWGAGTTVTVSS
VL: DIVLTQTPAIMSASPGEKVTMTCSASSNVNYMHWYQQKSSTSPKLWIYDTSKLASGVPGRFSGSGSGNSYSLTISSMEAEDVATYYCFQGNGNPYTFGGGTKLEIK
notes: Mouse hybridoma antibody purified on Protein G; also called mouse anti-hTfR antibody No. 4; product of Clone 4 line
B3: anti-hTfR antibody No. 5 (antibody, V domains shown)
VH: EVQLQESGPELVKPGASVKMSCKASGYTFTNFVIHWVKQRPGQGLEWIGFFNPHKNGAEYNEKFQVKATLTSDKSSTTAYMELNSLTSEDSAVYYCARSFYYYSMDYWGQGTSVTVSS
VL: DIVMTQTPAIMSASPGEKVTMTCSASSSISSIHWYQQKPGTSPKRWIYDTSTLASGVPVRFSGSGSGTSYSLTISSMEAEDAATYYCHQRSSYPTFGGGTKLEIK
notes: Mouse hybridoma antibody purified on Protein G; also called mouse anti-hTfR antibody No. 5; product of Clone 5 line
B4: anti-hTfR antibody No. 6 (antibody, V domains shown)
VH: EVQLQESGPGLVAPSQSLSITCSVSGFSLSTYGVYWVRQPPGKGLEWLGIIWGDGSTNYHSALISRLTISKDNSKSQVFLKLNSLQTADTATYYCAKPDDVWGAGTTVTVSS
VL: DIVLTQTPSSLSASLGERVSLTCRASQEISGYLSWLQQKPDGTIKRLIYAASTLDSGVPKRFSGSRSGSDYSLTISSLESEDFADYYCLQYSSYPRTFGGGTKLEIK
notes: Mouse hybridoma antibody purified on Protein G; also called mouse anti-hTfR antibody No. 6; product of Clone 6 line
B5: anti-hTfR antibody No. 7 (antibody, V domains shown)
VH: EVQLQESGGALVKPGGSLKVSCEASGITFRNYFMSWVRQTPEKRLEWVATISSAGGYTYYADSVKGRFTISRDNAGNTLYLQMSSLRSEDTAMYFCARQEVPYPYAMDYWGQGTSVIVSS
VL: DIVLTQSPVIMSASLGEEITLTCSASSSVNYIHWYQQKSGTSPKVLIYQTSNLASGVPSRFSGSRSGTFYSLKISSVEAEDAADYYCHQWSSYPWTFGGGTKLEIK
notes: Mouse hybridoma antibody purified on Protein G; also called mouse anti-hTfR antibody No. 7; product of Clone 7 line
B6: anti-hTfR antibody No. 9 (antibody, V domains shown)
VH: EVQLQESGPELKKPGETVKISCKASGYTFTNYGVSWVKQAPGKDLKWMGWIYTFTGEATYIDDFRGRFAFSLETSANTAYLQINNLKNEDTATYFCSRRNGAWFEDWGQGTLVTVSA
VL: DIVLTQSPALMSASPGETVTMTCSASSSVSLMFWYQQKPRSSPKPWIYFTSYRASGVPIRFSGSGSGTSFSLTISNLEAEDAATYYCQQWTSDPPTFGSGTKLEIE
notes: Mouse hybridoma antibody purified on Protein G; also called mouse anti-hTfR antibody No. 9; product of Clone 9 line
B7: anti-hTfR antibody No. 2 (antibody, V domains shown)
VH: EVQLQESGAELVRPGVSVKISCKGSGYTFTDYVMHWVRQSHAKSLEWIGVISTYYGHGSYNQRFKGKATMTVDKSSSTAYLELVRLTSEDSAIYYCVRGGYGSSSLAGNFDVWGAGTTVTVSS
VL: DIVLTQSPATLSVTPGDSVSLSCRASQSISNNLQWYQQKSHESPRLLIKYASQSISGIPSRFSGSGSGTDFTLSINSVETEDFGMYFCQQSNSWPRTFGAGTKLELKR
notes: Mouse hybridoma antibody purified on Protein G; also called mouse anti-hTfR antibody No. 2; product of Clone 2 line

Experiments:
[1] = target: T1, recombinant monkey TfR (r monkey TfR: …); experiment: BLI (Octet RED96), His-tagged TfR ECD loaded on Ni-NTA sensor, antibody as analyte
Description: (§1) By measuring the variations of this shift between the interfering waves, determination of the number of the molecules bound to the layer of the biomolecules immobilized to the sensor tip surface and kinetic analysis of it can be performed in real time. The measurement was performed according generally to the operating manual attached to Octet RED96. As a human TfR, a recombinant human TfR (r human TfR: Sino Biological Inc.) was used, which had the amino acid sequence of the hTfR extracellular region, i.e., the cysteine residue at the position 89th from the N-terminal side to the phenylalanine at the C-terminus, of the amino acid sequence set forth as SEQ ID NO:1, with a histidine tag attached to the N-terminus. As a monkey TfR, a recombinant monkey TfR (r monkey TfR: Sino Biological Inc.) was used, which had the amino acid sequence of the cynomolgus monkey TfR extracellular region, i.e., the cysteine residue at the position 89th from the N-terminal side to the phenylalanine at the C-terminus, of the amino acid sequence set forth as SEQ ID NO:2, with a histidine tag attached to the N-terminus.
(§2) Each of the antibodies (anti-hTfR antibody Nos. 1 to 14) purified above was subjected to 2-fold dilution steps with HBS-P+(10 mM HEPES containing 150 mM NaCl, 50 μM EDTA and 0.05% Surfactant P20) to prepare antibody solutions of 7 different concentrations, 0.78125 to 50 nM (0.117 to 7.5 μg/mL). These antibody solutions were used as the sample solutions. The r human and r monkey TfRs were respectively diluted with HBS-P+ to prepare 25 μg/mL solutions, which were used as r human TfR-ECD (Histag) solution and r monkey TfR-ECD (Histag) solution, respectively.
(§3) Each of the sample solutions prepared above by 2-fold dilution steps was added, 200 μL/well, to a 96-well plate, black (Greiner Bio-One Inc.). Each of the r human TfR-ECD (Histag) solution and the r monkey TfR-ECD (Histag) solutions prepared above was added, 200 μL/well, to predetermined wells. To respective wells for baseline, dissociation and washing were added HBS-P+, 200 μL/well. To wells for regeneration were added 10 mM Glycine-HCl, pH 1.7, 200 μL/well. To wells for activation was added 0.5 mM NiCl₂ solution, 200 μL/well. The plate and biosensor (Biosensor/Ni-NTA: ForteBio Inc., a division of Pall Corporation) were set in the prescribed positions of Octet RED96.

[2] = target: T2, recombinant human TfR (r human TfR: Sino Biological Inc.) (human, UniProt P02786 89-760); experiment: as above
T2 construct: Bought product; also called r human TfR-ECD (Histag); hTfR; not shown: histidine tag attached to the N-terminus
T2 sequence (P02786 89-760): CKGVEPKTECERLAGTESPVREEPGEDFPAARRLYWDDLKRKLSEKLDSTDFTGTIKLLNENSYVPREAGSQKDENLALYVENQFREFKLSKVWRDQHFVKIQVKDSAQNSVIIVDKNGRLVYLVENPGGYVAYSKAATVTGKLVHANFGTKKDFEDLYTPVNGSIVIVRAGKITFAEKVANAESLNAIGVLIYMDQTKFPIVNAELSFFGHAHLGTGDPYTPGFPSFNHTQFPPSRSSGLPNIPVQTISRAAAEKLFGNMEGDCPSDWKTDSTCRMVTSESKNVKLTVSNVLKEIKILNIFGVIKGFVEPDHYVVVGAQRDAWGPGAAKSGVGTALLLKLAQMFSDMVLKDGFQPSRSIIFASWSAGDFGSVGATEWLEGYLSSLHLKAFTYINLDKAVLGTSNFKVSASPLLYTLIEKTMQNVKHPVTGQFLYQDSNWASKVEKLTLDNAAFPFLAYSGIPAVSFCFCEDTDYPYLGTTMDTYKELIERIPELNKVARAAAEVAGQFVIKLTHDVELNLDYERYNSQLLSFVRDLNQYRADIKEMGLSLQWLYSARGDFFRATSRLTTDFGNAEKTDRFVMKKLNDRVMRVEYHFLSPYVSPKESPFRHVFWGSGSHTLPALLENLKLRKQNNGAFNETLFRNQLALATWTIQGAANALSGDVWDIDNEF
Description: as §1, §2, §3

Binder | Kd [1] [nM] | koff [1] [s⁻¹] | kon [1] [M⁻¹ s⁻¹] | Kd [2] [nM] | koff [2] [s⁻¹] | kon [2] [M⁻¹ s⁻¹]
B1 | < 0.001 | < 1e-07 | 280000 | 0.00509 | 2.55e-06 | 500000
B2 | 0.161 | 0.000121 | 754000 | 0.12 | 0.000229 | 1.91e+06
B3 | 1.46 | 0.000758 | 519000 | 0.0364 | 2.44e-05 | 671000
B4 | 0.123 | 0.000236 | 495000 | 0.958 | 0.000723 | 754000
B5 | 0.0171 | 4.54e-06 | 266000 | 0.0822 | 3.03e-05 | 369000
B6 |  |  |  | 0.121 | 9.46e-05 | 782000
B7 |  |  |  | 0.0112 | 1.23e-05 | 1.11e+06
